US7919464B2, “Use of a peptide that interacts with αvβ3 integrin of endothelial cell” (Kyungpook National University Industry-Academic Cooperation …, priority 2003, dated 2011)

Key:
[1] = tested on: HUVECs cell membrane; experiment: Binding of biotin-βig-h3 to HUVECs surface (Western immunoblotting); set-up: species or system human; settings: biotin-βig-h3, 4° C. 5 hours
Experimental: To confirm that HUVECs adhesion that is mediated by βig-h3 depends on αvβ3 integrin, the present inventors tested the binding affinity of βig-h3 in the presence of an antibody that specifically blocks the function of the integrin. This binding assay was performed according to the method described by Maile, L. A., et al., J. Biol. Chem., […].
First, HUVECs were suspended in medium at a density of 1×10^5 cells/ml. 1 ml of the cell suspension was preincubated with anti-αvβ3 antibody (LM609) or anti-αvβ5 antibody (P1F6) at 37° C. for 30 minutes. Thereafter, the preincubated cells were incubated with biotinylated βig-h3 (hereinafter, referred to as “biotin-βig-h3”) in a serum-free medium containing 0.1% BSA at 4° C. for 5 hours. The biotin-βig-h3 was added at concentrations of 1×10^−10, 1×10^−9 and 5×10^−9 μm, respectively. Then, the cells were washed three times with PBS buffer (pH 7.4), and dissolved at 4° C. in ice-cold buffer A (10 mM Tris-Cl, pH 7.4, 150 mM NaCl, 1% Nonidet P-40, 1% sodium deoxycholate, 0.5% SDS, 0.02% sodium azide, 1 mM EDTA, 1 mM phenylmethylsulfonyl fluoride). The cell lysates were clarified by centrifugation at 13,000 rpm for 30 minutes at 4° C. Equal amounts of protein were then separated by SDS-PAGE, 8% gel. The amount of biotin-βig-h3 was determined by Western immuno-blotting. […]

[2] = tested on: β3/293 cells (HEK293 cells transfected with human β3 integrin expression vector); experiment: Adhesion of β3/293 cells to βig-h3 and its inhibition; format: cell-based; settings: plate coated with βig-h3
Experimental: (§1) To construct a human β3 integrin expression vector, RT-PCR was performed using a human placenta poly(A)^+ RNA as a template, thereby generating a 2.4-kb β3 cDNA (Chandrika, S. K. et al., J. Biol. Chem., 272:16390-16397, 1997). The amplified β3 cDNA was digested with HindIII/XbaI, and then cloned into the pcDNA3 vector (Invitrogen). The resulting vector was named “β3/pcDNA3”. Then, 1 μg of the β3/pcDNA3 vector was introduced into HEK293 cells (ATCC, catalog No. CRL 1573) using lipofectamin (Gibco). A control was introduced with a pcDNA3 vector containing no human β3 cDNA. Since all the vectors contain a G418 selection marker, the stable transfected cells were screened using 1 mg/ml of G418. The cell transfected with the β3/pcDNA3 vector was named “β3/293”, and the cell transfected with the pcDNA3 vector (control) was named “pc/293”. Each of the screened transfectants was incubated in DMEM (Dulbecco's Modified Eagle Medium) containing 10% FBS, streptomycin and penicillin. Then, cell adhesion assay was performed in the same manner as in Example 2.
In the present invention, to further confirm that βig-h3 mediates endothelial cell adhesion through the αvβ3 integrin, cell adhesion assay using antibodies that block the function of integrins was performed in the same manner as in Example 3-1. […]

[3] = tested on: pc/293 cells (HEK293 cells transfected with pcDNA3 vector); experiment: Adhesion of pc/293 cells to βig-h3; format: cell-based, human; settings: plate coated with βig-h3; control transfectant
Experimental: as §1

B1: βig-h3: recombinant human βig-h3 protein that expresses all of four fas-1 domains; biotinylated form used in binding assay (protein)
chain: YQRKICGKSTVISYECCPGYEKVPGEKGCPAALPLSNLYETLGVVGSTTTQLYTDRTEKLRPEMEGPGSFTIFAPSNEAWASLPAEVLDSLVSNVNIELLNALRYHMVGRRVLTDELKHGMTLTSMYQNSNIQIHHYPNGIVTVNCARLLKADHHATNGVVHLIDKVISTITNNIQQIIEIEDTFETLRAAVAASGLNTMLEGNGQYTLLAPTNEAFEKIPSETLNRILGDPEALRDLLNNHILKSAMCAEAIVAGLSVETLEGTTLEVGCSGDMLTINGKAIISNKDILATNGVIHYIDELLIPDSAKTLFELAAESDVSTAIDLFRQAGLGNHLSGSERLTLLAPLNSVFKDGTPPIDAHTRNLLRNHIIKDQLASKYLYHGQTLETLGGKKLRVFVYRNSLCIENSCIAAHDKRGRYGTLFTMDRVLTPPMGTVMDVLKGDNRFSMLVAAIQSAGLTETLNREGVYTVFAPTNEAFRALPPRERSRLLGDAKELANILKYHIGDEILVSGGIGALVRLKSLQGDKLEVSLKNNVVSVNKEPVAEPDIMATNGVVHVITNVLQPPANRPQERGDELADSALEI
[1]
  binding of βig-h3 to HUVECs surface: bound to HUVECs surface in a dose-dependent manner
[2]
  adhesion of β3/293 cells to βig-h3: strongly adhered
[3]
  adhesion of pc/293 cells to βig-h3: not adhered
